Measured values reported in FireProtDB (doi:10.1093/protein/11.3.213).

Details: Escherichia phage lambda; pH 6.6; 25 °C; Thermal; Fluorescence; phosphate 0.1 M; reversible: yes; whole UniProt chain shown

B1: Endolysin wild type, P03706 (protein)
chain: MVEINNQRKAFLDMLAWSEGTDNGRQKTRNHGYDVIVGGELFTDYSDHPRKLVTLNPKLKSTGAGRYQLLSRWWDAYRKQLGLKDFSPKSQDAVALQQIKERGALPMIDRGDIRQAIDRCSNIWASLPGAGYGQFEHKADSLIAKFKEAGGTVREIDV
- unfolding free energy: 3.54 kcal/mol
